{"source": "paper PMC12987686", "about": "(RSC pharmaceutics, 2025)", "key": {"[1]": {"details": "cited from earlier work"}, "in vivo [2]": {"test": "in vivo", "set-up": "species or system mouse", "details": "CD1, mouse, iv, total radioactivity"}, "[3]": {"tested_on": "CD1 mice with myocardial infarction", "test": "in vivo", "set-up": "species or system mouse", "details": "mouse"}, "[4]": {"test": "Stability in the final formulation by analytical rad-HPLC", "type": "physicochemical", "details": "final formulation 10/30/60 v/v/v ethanol/1.0 M sodium acetate/saline, room temperature, mean ± SD, n = 4"}, "in vivo [5]": {"test": "in vivo", "details": "CD1, mouse, iv, total radioactivity"}, "[6]": {"tested_on": "CD1 mice with myocardial infarction", "details": "mouse, in vivo"}, "healthy CD1 mice": {"tested_on": "healthy CD1 mice", "test": "in vivo", "set-up": "species or system mouse", "details": "mouse"}, "in vivo [7]": {"test": "in vivo", "set-up": "species or system mouse", "details": "CD1, mouse, iv, total radioactivity", "remark": "listed apart in the source"}}, "note": "Peptide text beside a SMILES is read from it.", "data": [{"compound": "CC(C)(C)n1ncc(OCc2ccc(COCC[18F])cc2)c(Cl)c1=O", "note": "[[^18F]F-flurpiridaz]", "values": [{"measurement": "first-pass extraction fraction", "setting": "[1]", "result": 94, "unit": "%"}]}, {"compound": "[82Rb]", "note": "[^82Rb]", "values": [{"measurement": "first-pass extraction fraction", "setting": "[1]", "result": "~ 65%"}]}, {"compound": "CC(C)C[C@H](NC(=O)[C@H](Cc1c[nH]cn1)NC(=O)[C@H](Cc1c[nH]c2ccccc12)NC(=O)[C@@H]1CCCN1C(=O)[C@H](C)NC(=O)CN1CCN(CC(=O)O)CCN(CC(=O)O)CC1)C(=O)N[C@@H](CO)C(=O)N[C@@H](CO)C(=O)N[C@@H](CCC(N)=O)C(=O)N[C@@H](Cc1ccc(O)cc1)C(=O)N[C@@H](CO)C(=O)N[C@@H](CCCNC(=N)N)C(=O)N[C@H](C(=O)O)[C@@H](C)O", "note": "[[^68Ga]Ga-NOTA-CTP, metal not drawn] (HELM PEPTIDE1{[O=C(O)CN1CCN(CC(=O)O)CCN(CC(=O)[*:2])CC1].A.P.W.H.L.S.S.Q.Y.S.R.T}$$$$V2.0; N-terminus and C-terminus assumed)", "values": [{"measurement": "SUV at 2 h", "setting": "in vivo [2]; 2.29 MBq, SUV heart", "result": "0.03 ± 0.02", "unit": "SUV"}, {"measurement": "SUV at 2 h", "setting": "in vivo [2]; SUV Cecum", "result": "2.28 ± 3.64", "unit": "SUV"}, {"measurement": "SUV at 2 h", "setting": "in vivo [2]; SUV Lung", "result": "0.04 ± 0.04", "unit": "SUV"}, {"measurement": "SUV at 2 h", "setting": "in vivo [2]; SUV Pancreas", "result": "0.05 ± 0.04", "unit": "SUV"}, {"measurement": "SUV Heart", "setting": "[3]", "result": "0.03 ± 0.02"}, {"measurement": "radiochemical purity in the formulation", "setting": "[4]; 0 min post-synthesis", "result": "98.78 ± 1.08", "unit": "%"}, {"measurement": "radiochemical purity in the formulation", "setting": "[4]; 2 h post-synthesis", "result": "92.52 ± 3.66", "unit": "%"}, {"measurement": "SUV at 2 h", "setting": "in vivo [5]; SUV Cecum", "result": "2.36 ± 2.24", "unit": "SUV"}, {"measurement": "SUV at 2 h", "setting": "in vivo [5]; SUV Heart", "result": "0.02 ± 0.006", "unit": "SUV"}, {"measurement": "SUV at 2 h", "setting": "in vivo [5]; SUV Lung", "result": "0.04 ± 0.02", "unit": "SUV"}, {"measurement": "SUV at 2 h", "setting": "in vivo [5]; SUV Pancreas", "result": "0.05 ± 0.06", "unit": "SUV"}, {"measurement": "time of clearance from the blood", "setting": "[6]", "result": "≤ 30", "unit": "min"}, {"measurement": "SUV in left ventricle (LV) vs right ventricle (RV)", "setting": "healthy CD1 mice", "result": "SUV in LV was lower than the RV"}, {"measurement": "time of clearance from the blood", "setting": "healthy CD1 mice", "result": "≤ 30", "unit": "min"}, {"measurement": "SUV at 1 h", "setting": "in vivo [7]; 2.29 MBq, SUV heart", "result": "0.04 ± 0.04", "unit": "SUV"}, {"measurement": "SUV at 2 h", "setting": "in vivo [7]; 2.29 MBq, SUV heart", "result": "0.02 ± 0.01", "unit": "SUV"}, {"measurement": "SUV", "setting": "in vivo [7]; 2.29 MBq, SUV kidneys", "result": "2.64 ± 0.89", "unit": "SUV"}, {"measurement": "SUV at 1 h", "setting": "in vivo [7]; 2.29 MBq, SUV kidneys", "result": "0.92 ± 0.68", "unit": "SUV"}, {"measurement": "SUV at 2 h", "setting": "in vivo [7]; 2.29 MBq, SUV kidneys", "result": 0.1, "unit": "SUV"}, {"measurement": "SUV", "setting": "in vivo [7]; 2.29 MBq, SUV liver", "result": "1.42 ± 0.49", "unit": "SUV"}, {"measurement": "SUV at 1 h", "setting": "in vivo [7]; 2.29 MBq, SUV liver", "result": "0.69 ± 0.32", "unit": "SUV"}, {"measurement": "SUV at 2 h", "setting": "in vivo [7]; 2.29 MBq, SUV liver", "result": 0.14, "unit": "SUV"}, {"measurement": "SUV", "setting": "in vivo [7]; 2.29 MBq, SUV muscle", "result": "0.36 ± 0.12", "unit": "SUV"}, {"measurement": "SUV at 1 h", "setting": "in vivo [7]; 2.29 MBq, SUV muscle", "result": "0.18 ± 0.13", "unit": "SUV"}, {"measurement": "SUV at 2 h", "setting": "in vivo [7]; 2.29 MBq, SUV muscle", "result": "0.19 ± 0.18", "unit": "SUV"}, {"measurement": "SUV", "setting": "in vivo [7]; 2.29 MBq, SUV urinary bladder", "result": "7.51 ± 3.49", "unit": "SUV"}, {"measurement": "SUV at 1 h", "setting": "in vivo [7]; 2.29 MBq, SUV urinary bladder", "result": "10.6 ± 6.1", "unit": "SUV"}, {"measurement": "SUV at 2 h", "setting": "in vivo [7]; SUV urinary bladder", "result": "9.02 ± 8.59", "unit": "SUV"}]}, {"compound": "[15OH2]", "note": "[^15O-water]", "values": [{"measurement": "first-pass extraction fraction", "setting": "[1]", "result": "~ 100%"}]}]}
